Source: patent US4287300A, “Charge effects in enzyme immunoassays” (priority 1979, dated 1981)

Tested on: β-galactosidase
Assay: β-galactosidase activity assay with ONPG substrate
Type: biochemical
Conditions: after dithioerythritol treatment and Biogel A5M chromatography
Method: C. To 1.8 ml of a 35.3 mg/ml solution of the antiHIgG was added 60 μl (10 mg/ml DMF) of m-maleimidobenzoic acid NHS ester and the mixture allowed to stand at room temperature for 30 min, followed by the addition of 0.18 ml of 1 M sodium acetate, pH 5. The reaction mixture was then dialyzed 2×500 ml (degassed) 20 mM sodium acetate, pH 5, 0.15 M NaCl for 1 hr at room temperature. To a solution of 5 ml of β-galactosidase (1.47 mg/ml) was added 0.2 ml of 0.5 M phosphate, pH 7, followed by 2 ml of the above reaction product at a concentration of 31.1 mg/ml and the mixture incubated at room temperature for 4 hrs. The reaction was terminated by the addition of 0.2 ml of 10 mM cysteine-HCl and incubating for 0.5 hr to yield a final volume of 7.4 ml. […] Fractions 24 to 33 were collected to provide a volume of 50 ml with an optical density at 280 nm of 0.540 and a molar ratio of antibody to enzyme of about 5:1. […] Assaying for the enzyme employed a 10 μl fraction dissolved in 0.5 ml PBS, N3, Mg, RSA combined with 0.1 ml 20 mM ONPG in 0.4 ml buffer and measuring the rate at 37° at 420 nm for the interval between 10 to 20 secs after addition of the substrate.
D. The above procedure was repeated as follows. […] The assays were performed at 37° C., reading at 420 nm employing an assay solution of 10 μl of the conjugate, 0.9 ml PBS, N3, Mg, RSA and 0.1 ml of substrate (20 mM ONPG).

## β-galactosidase: β-galactosidase (Boehringer 150797), treated with dithioerythritol and chromatographed on Biogel A5M
  enzyme activity: 477 u/mg of protein
